In patent US20210130799 one finds activity data, which are given here for three sequences.

Holding throughout (test): cleavage_in_vitro
Data set [1] addresses T1, TtCsm6 (Thermus thermophilus) (UniProt Q53W17).
T1 sequence: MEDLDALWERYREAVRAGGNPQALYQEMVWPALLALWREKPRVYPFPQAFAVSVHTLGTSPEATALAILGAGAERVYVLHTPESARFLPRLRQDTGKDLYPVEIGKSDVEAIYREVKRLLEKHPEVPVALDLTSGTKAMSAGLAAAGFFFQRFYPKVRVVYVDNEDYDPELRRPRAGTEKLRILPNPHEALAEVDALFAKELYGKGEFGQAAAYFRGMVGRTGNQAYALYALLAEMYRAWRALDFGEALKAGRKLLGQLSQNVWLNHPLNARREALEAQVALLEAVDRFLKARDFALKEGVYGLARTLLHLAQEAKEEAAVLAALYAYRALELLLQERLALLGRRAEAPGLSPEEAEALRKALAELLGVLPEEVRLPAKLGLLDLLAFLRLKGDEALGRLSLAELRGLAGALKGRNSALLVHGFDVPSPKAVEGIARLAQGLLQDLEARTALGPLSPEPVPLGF
The settings on record: cyclic, 3'-5' linked; c(AMP)4 amount required to activate RNase.

For data set [2], the system named is StCsm6' (Streptococcus thermophilus DGCC8004).
Data set [3] relates to StCsm6 (Streptococcus thermophilus DGCC8004).
[4] abbreviates: cyclic, 3'-5' linked, c(AMP)6 amount sufficient to activate RNase on RNA NS.

In data set [1], AAAA [c(AMP)4] displayed an activity of 50 nM. For AAAAAA [c(AMP)6], the results for the activity in data set [2] (setting [4]) and in data set [3] (setting [4]) were 5 nM and 0.5 nM, respectively. With “GGGCGGCAAAUUGAGGAUUUCGUAACUGUUUAAUUCUGUUCACUUAUUCCACCAACAAAAGGUGGCGA [RNA NS]”, the activity in data set [2] (StCsm6' concentration for degradation with cyclic oligoadenylates, 1 uM needed without, 1 mM EDTA, 37 C) is 1 nM; in data set [3] (lowest StCsm6 concentration for degradation with 0.5 uM cyclic oligoadenylate mix, 1 uM needed without, 1 mM EDTA, 37 C), 1 nM.
